Data taken from US20140127200A1.

Target: HER2 expressed on the surface of breast carcinoma cells (BT-474; SK-BR-3) (human) (UniProt P04626)
Assay: cell-based or functional assay

- ADCC on SK-BR-3 cells with human PBMCs (specific release), IC50: 0.067 nM
Substance: HER-con4(H) (…® with the 2xcon4 MRD fused to the heavy chain) (bispecific antibody)
